Test results: patent publication US20090188010A1

Key:
Test in all cases: cell-based or functional assay
[1] = molecular target: NaPI-insensitive chymotrypsin from H. punctigera (HpCh5), native enzyme from the larval gut (Helicoverpa punctigera)
[2] = molecular target: Bovine chymotrypsin (bovine) (UniProt P00766)
[3] = molecular target: chymotrypsins in unfractionated gut extracts from H. punctigera larvae

Sequence of lima bean trypsin inhibitor (Sigma) (P01056 whole entry): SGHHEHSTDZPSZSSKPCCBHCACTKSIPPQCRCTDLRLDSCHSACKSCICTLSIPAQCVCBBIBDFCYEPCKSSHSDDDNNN
Sequence of NaPI-insensitive chymotrypsin from H. punctigera (HpCh5), native enzyme from the larval gut (Helicoverpa punctigera) (chain, as listed by the source limits assumed): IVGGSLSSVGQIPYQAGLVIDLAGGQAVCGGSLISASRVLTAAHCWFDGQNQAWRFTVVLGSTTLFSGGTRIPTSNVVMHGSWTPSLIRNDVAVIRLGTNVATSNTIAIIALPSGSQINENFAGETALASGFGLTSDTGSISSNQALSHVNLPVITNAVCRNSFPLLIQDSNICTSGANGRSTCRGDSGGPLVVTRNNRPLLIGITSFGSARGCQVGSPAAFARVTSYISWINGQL
Sequence of soybean trypsin inhibitor (P01070 25-205): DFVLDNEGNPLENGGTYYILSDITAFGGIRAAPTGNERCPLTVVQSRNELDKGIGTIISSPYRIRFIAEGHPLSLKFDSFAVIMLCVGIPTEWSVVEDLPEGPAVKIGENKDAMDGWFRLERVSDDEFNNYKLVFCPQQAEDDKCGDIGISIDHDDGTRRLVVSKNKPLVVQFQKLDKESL
Sequence of soybean Bowman Birk inhibitor (P01055 40-110 limits assumed): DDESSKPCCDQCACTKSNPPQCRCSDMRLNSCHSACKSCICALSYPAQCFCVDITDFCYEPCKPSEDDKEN

Row | Substance | % Inhibition of chymotrypsin activity at the maximum concentration tested (>20 µM) [1] [%] | IC50 of inhibition of chymotrypsin activity [1] [µM] | % Inhibition of chymotrypsin activity at the maximum concentration tested (5 µM) [2] [%] | IC50 of inhibition of chymotrypsin activity [2] [µM] | % Inhibition of chymotrypsin activity at the maximum concentration tested (10 µM) [1] [%] | % Inhibition of chymotrypsin activity at the maximum concentration tested (>20 µM) [2] [%] | degree of inhibition of gut chymotrypsin activity of control insects, 80 nM C1 (FIG. 2F) [3] [%]
1 | lima bean trypsin inhibitor (Sigma) (from UniProt P01056 1-83) | 89 | 3 | 100 | 0.2 | – | – | –
2 | soybean Bowman Birk inhibitor (from UniProt P01055 40-110) | – | 0.24 | 100 | 0.06 | 100 | – | –
3 | soybean trypsin inhibitor (from UniProt P01070 25-205) | 82 | 33 | – | 13 | – | 94 | –
4 | C1 monomer, chymotrypsin inhibitor from the N. alata proteinase inhibitor precursor, HPLC purified | – | – | – | – | – | – | 75
